Laboratory results published in paper PMC4408887 (Nature chemistry, 2015).
Positions of bridges follow the written chain, without caps; N, C: chain ends. Non-standard residues stand in square brackets, D forms with d. Residues, ends and D or L forms follow the SMILES beside them. Triazole bridges read from a SMILES are 1,4-linked. Chains are numbered I, II in the order given. No end group written: not given here. *: point of attachment. Biotin = O=C1N[C@H]2[C@H](CS[C@H]2CCCCC(=O)*)N1; Lys(N3) = [N-]=[N+]=NCCCC[C@H](N)C(=O)O; PEG5 = NCCOCCOCCOCCOCCOCCC(=O)O; Pra = C#CC[C@H](N)C(=O)O

Key:
[1] = biological target: label-modified yleaf peptide used in fluorescence polarization; experiment: fluorescence polarisation
[2] = test system: E17K versus WT PH Domain of Akt1 - PIP3 interaction; experiment: PIP3 agarose inhibition, E17K relative to WT; format: biochemical; conditions: triligand 0.1-1000 eq
[3] = test system: Akt1^E17K relative to Akt2^E17K; experiment: Point ELISA, Akt1 and Akt2 isoforms; format: binding; conditions: 100 nM protein, triplicate
WT or E17K GST-Akt1 = experiment: Point ELISA in human serum; format: binding; conditions: 150 nM protein, 0%, 1% and 2% human serum in TBS
[4] = biological target: WT 33-mer PH Domain epitope of Akt1 (Homo sapiens, UniProt P31749); experiment: Fluorescence polarization binding to WT 33-mer epitope
full length Akt1 (WT) = full length Akt1 (WT) (UniProt P31749 1-480); experiment: fluorescence polarisation
full length Akt1^E17K = full length Akt1^E17K (UniProt P31749 1-480, E17K); experiment: fluorescence polarisation

E17K mutant 6-His-tagged 33-mer PH Domain peptide fragment of Akt1 (from UniProt P31749 1-33)
Kd [1]: 328 nM

WT 6-His-tagged 33-mer PH Domain peptide fragment of Akt1 (from UniProt P31749 1-33)
Kd [1]: 2800 nM

CC[C@@H](C)[C@@H](NC(=O)CCOCCOCCOCCOCCOCCNC(=O)CCCC[C@@H]1SC[C@@H]2NC(=O)N[C@@H]21)C(=O)N[C@@H](C(=O)N[C@H](CC(=O)O)C(=O)N[C@H](C)C(=O)N[C@H](CCC(=O)O)C(=O)N[C@@H](Cc1cn(CCCC[C@H](NC(C)=O)C(=O)N[C@H](Cc2ccc(O)cc2)C(=O)N[C@H](CC(C)C)C(=O)N[C@H](CCC(=O)O)C(=O)N[C@H](C)C(=O)N[C@H](Cc2ccccc2)C(=O)N[C@@H](Cc2cn(CCCC[C@H](NC(C)=O)C(=O)N[C@H](Cc3ccc(O)cc3)C(=O)N[C@H](CCCCN)C(=O)N[C@H](CO)C(=O)N[C@H](Cc3ccc(O)cc3)C(N)=O)nn2)C(=O)O)nn1)C(=O)O)C(C)C [triligand] (I: Ac-[Lys(N3)][dY][dL][dE][dA][dF][Pra]-OH / II: {Biotin-PEG5}-[dI][dV][dD][dA][dE][Pra]-OH / III: Ac-[Lys(N3)][dY][dK][dS][dY]-NH2; triazole I:1-II:6, I:7-III:1; C-terminus assumed)
selective inhibition of E17K relative to WT [2]: significant selective inhibition of the E17K mutant relative to the WT
preference for Akt1^E17K relative to Akt2^E17K [3]: slight preference for Akt1^E17K relative to the Akt2^E17K
reduction in binding efficiency in human serum (WT or E17K GST-Akt1): very little reduction in binding efficiency

CC(C)C[C@@H](NC(=O)[C@H](N)Cc1ccc(O)cc1)C(=O)N[C@H](CCC(=O)O)C(=O)N[C@H](C)C(=O)N[C@H](Cc1ccccc1)C(N)=O [yleaf] (H-[dY][dL][dE][dA][dF]-NH2)
Kd [4]: 2800 ± 840 nM

B1: label-modified yleaf peptide used in fluorescence polarization (peptide)
peptide: [dY][dL][dE][dA][dF]
modifications: also: label-modified, label not given here
Kd (full length Akt1 (WT)): > 1000 nM
Kd (full length Akt1^E17K): 54 ± 7 nM
